Laboratory results from patent publication US20100183584A1, “CONFORMATION AND ACTIVITY OF GBETA5 COMPLEXES” (University Of Miami, priority 2007, published 2010).
Values belong to the molecule of their own block, whether it stands above or below them.

Key:
[1] = target: native RGS7-Gβ5 complex from mouse brain extract (mouse) (UniProt P62881); assay: GST pull-down from mouse brain extract, western blot
[2] = target: full-length RGS7-Gβ5 complex (recombinant, co-expressed in cells) (bovine) (UniProt O46470); assay: GST pull-down from COS-7 lysate, western blot
[3] = target: Gβ5-RGS7^249-469 complex (bovine) (UniProt O46470); assay: GST pull-down from COS-7 lysate, western blot
[4] = target: muscarinic acetylcholine M3 receptor (M3R), full length, expressed in CHO cells (human) (UniProt P20309); assay: cell-based or functional assay
muscarinic acetylcholine M3 receptor (M3R), full length, expressed in CHO cells (human), sequence (P20309 whole entry): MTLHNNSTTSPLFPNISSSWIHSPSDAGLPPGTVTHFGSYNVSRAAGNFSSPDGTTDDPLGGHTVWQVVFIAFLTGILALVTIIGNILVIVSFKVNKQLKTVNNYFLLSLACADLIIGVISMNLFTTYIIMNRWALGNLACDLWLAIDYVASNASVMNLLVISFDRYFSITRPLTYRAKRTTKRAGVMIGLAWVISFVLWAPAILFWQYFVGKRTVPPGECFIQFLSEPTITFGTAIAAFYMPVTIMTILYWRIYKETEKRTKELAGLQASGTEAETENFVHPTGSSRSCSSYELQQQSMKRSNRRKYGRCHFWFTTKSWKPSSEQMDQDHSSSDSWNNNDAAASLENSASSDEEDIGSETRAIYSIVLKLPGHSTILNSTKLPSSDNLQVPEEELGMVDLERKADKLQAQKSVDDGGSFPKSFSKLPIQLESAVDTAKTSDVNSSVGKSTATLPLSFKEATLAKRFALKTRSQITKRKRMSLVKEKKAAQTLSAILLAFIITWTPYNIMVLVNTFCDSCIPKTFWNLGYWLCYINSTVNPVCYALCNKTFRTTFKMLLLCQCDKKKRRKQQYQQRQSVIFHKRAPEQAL

[5] = target: T1, Gβ5-RGS7 dimer (CFP-Gβ5/YFP-RGS7) (UniProt O14775+O46470); assay: FRET between CFP-Gβ5 and YFP-RGS7 in COS-7 cell lysates; assay type: binding, bovine; conditions: GST-R7DEP added to COS-7 lysate; GST alone had no effect
T1 construct: YFP fusion of full-length RGS7 (YFP-RGS7) and CFP-Gβ5; expressed in transfected cells; host or cells: COS-7 (transient; lysate measured)
T1 sequence (O14775 1-353 isoform O14775-2): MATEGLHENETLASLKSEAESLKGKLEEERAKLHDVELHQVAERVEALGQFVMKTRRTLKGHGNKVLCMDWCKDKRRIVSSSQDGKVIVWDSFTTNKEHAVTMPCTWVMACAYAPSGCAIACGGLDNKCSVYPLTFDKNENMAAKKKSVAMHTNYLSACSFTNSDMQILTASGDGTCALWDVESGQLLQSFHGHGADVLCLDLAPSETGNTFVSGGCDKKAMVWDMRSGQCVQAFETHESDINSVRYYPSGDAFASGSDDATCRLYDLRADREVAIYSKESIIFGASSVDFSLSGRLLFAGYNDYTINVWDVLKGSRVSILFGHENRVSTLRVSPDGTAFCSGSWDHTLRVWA
T1 sequence (O46470 1-469): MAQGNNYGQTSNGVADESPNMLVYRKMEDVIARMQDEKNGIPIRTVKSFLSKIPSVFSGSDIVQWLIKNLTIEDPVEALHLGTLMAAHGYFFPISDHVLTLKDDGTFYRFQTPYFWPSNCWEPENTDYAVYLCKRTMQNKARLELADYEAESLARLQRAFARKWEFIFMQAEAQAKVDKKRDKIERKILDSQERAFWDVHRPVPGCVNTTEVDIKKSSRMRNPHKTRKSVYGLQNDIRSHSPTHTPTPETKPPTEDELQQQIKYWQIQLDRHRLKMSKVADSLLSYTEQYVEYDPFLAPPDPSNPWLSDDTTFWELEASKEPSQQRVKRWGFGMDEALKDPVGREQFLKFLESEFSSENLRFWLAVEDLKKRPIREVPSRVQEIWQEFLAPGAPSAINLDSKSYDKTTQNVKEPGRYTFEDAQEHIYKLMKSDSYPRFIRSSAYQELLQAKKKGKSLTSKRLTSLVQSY
Text: To measure FRET, COS-7 cells were transiently transfected with plasmids encoding YFP-RGS7 and CFP-Gβ5. Control cells were co-transfected with YFP-RGS7 together with untagged Gβ5, and CFP-Gβ5 together with untagged RGS7. The lysates of these cells were subjected to spectroscopic analysis, as described in Example 1. Shown are the resulting FRET spectra obtained after subtraction of the YFP background fluorescence during the CFP excitation and CFP “bleed-through” into the YFP emission channel. A. Right panel: GST R7-DEP (black symbols) or buffer (open symbols) was added to the lysate prior to recording of the spectra. […]
To permit the association of exogenously added DEP domain with Gβ5, the intra-molecular interaction between the intrinsic DEP and Gβ5 must be dynamic and have relatively low affinity. To investigate this hypothesis, a protein-protein binding assay based on fluorescence resonance energy transfer (FRET) was devised. […]
FRET between CFP— and YFP-tagged proteins was determined on a photon counting spectrofluorometer (PTI, Inc.) (28). Briefly, the cell lysates were placed in a 4 ml quartz cuvette, and the spectra were recorded at room temperature with continuous mixing of the lysate with a magnetic stirrer. CFP was excited at 433 nm (2-4 nm slit width, depending on the intensity of fluorescence signal) and the emission spectra were obtained between 465 and 555 nm. […]

[6] = target: T2, GST (UniProt P08515 1-218 = GST); assay: GST pull-down from CHO cell lysate
T2 construct: Negative control in pull-down and FRET assays; also called GST alone; immobilized GST
T2 sequence (P08515 whole entry): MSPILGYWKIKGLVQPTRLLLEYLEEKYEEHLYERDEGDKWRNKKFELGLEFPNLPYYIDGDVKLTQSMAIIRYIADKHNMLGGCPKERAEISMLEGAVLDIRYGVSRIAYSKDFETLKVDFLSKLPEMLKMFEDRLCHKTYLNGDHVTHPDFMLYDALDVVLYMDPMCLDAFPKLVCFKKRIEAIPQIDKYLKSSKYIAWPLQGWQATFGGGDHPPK

[7] = target: T3, native RGS7-Gβ5 complex from mouse brain extract (mouse, UniProt P62881 1-353; O54829 1-469, limits assumed); assay: GST pull-down from mouse brain extract, western blot with anti-RGS7 and anti-Gβ5
T3 construct: Native complex in a cholate extract of brain membranes; may also carry R7BP; also called native Gβ5-RGS7; Gβ5-RGS complexes (brain)
T3 sequence (looked up) 1: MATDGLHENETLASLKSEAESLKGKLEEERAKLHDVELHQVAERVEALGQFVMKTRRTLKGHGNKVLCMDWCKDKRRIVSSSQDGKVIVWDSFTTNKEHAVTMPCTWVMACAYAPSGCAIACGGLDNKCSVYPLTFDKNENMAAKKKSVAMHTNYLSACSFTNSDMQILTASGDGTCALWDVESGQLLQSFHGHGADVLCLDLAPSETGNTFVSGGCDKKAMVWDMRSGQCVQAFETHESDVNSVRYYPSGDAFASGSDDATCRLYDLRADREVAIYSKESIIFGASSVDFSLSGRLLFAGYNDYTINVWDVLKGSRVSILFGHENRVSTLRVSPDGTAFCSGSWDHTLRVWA
T3 sequence (looked up) 2: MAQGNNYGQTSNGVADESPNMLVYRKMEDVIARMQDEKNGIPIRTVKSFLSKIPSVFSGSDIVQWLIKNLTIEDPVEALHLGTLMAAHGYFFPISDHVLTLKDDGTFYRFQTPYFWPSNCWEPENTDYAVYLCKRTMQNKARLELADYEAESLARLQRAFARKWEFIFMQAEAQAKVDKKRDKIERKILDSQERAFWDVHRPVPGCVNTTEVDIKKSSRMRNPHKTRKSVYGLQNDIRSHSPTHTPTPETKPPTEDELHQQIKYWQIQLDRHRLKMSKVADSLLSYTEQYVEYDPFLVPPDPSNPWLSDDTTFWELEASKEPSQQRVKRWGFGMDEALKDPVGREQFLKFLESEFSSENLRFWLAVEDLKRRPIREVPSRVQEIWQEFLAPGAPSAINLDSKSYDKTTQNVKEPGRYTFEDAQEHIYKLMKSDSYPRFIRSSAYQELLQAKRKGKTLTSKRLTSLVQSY

Molecule: GST-R7DEP ED/SG mutant (E73S/D74G) (from UniProt O46470 34-124)
fold reduction in the amount of Gβ5 pulled down relative to the wild-type DEP domain [1]: > 10 fold
fold reduction in the amount of Gβ5 pulled down relative to the wild-type DEP domain [2]: > 10 fold
fold reduction in the amount of Gβ5 pulled down relative to the wild-type DEP domain [3]: > 10 fold

Molecule: full-length RGS7 ED/SG mutant (RGS7^ED/SG, E73S/D74G) co-expressed with Gβ5 (from UniProt O46470 1-469)
reduction of the amplitude of carbachol-induced Ca^2+ transients in CHO-R7BP cells [4]: > 50%

B1: GST-R7DEP: GST fusion construct containing the amino acids 34-124 of bovine RGS7 (protein)
chain: MQDEKNGIPIRTVKSFLSKIPSVFSGSDIVQWLIKNLTIEDPVEALHLGTLMAAHGYFFPISDHVLTLKDDGTFYRFQTPYFWPSNCWEPE
modifications: left off: a dimerising Fc or GST
notes: GST fusion construct containing the amino acids 34-124 of bovine RGS7
FRET reduction, of the total FRET signal [5]: 15-20%

Next, values leading:

binding result [6]: no binding
B2: YFP-DEP (amino acids 1-124 of full-length bovine RGS7 fused to the C-terminus of YFP) (other, UniProt O46470 1-124, looked up)
chain: MAQGNNYGQTSNGVADESPNMLVYRKMEDVIARMQDEKNGIPIRTVKSFLSKIPSVFSGSDIVQWLIKNLTIEDPVEALHLGTLMAAHGYFFPISDHVLTLKDDGTFYRFQTPYFWPSNCWEPE
notes: range 1-124; also called DEP domain; DEP domain of RGS7; not shown: yellow fluorescent protein (YFP) of the pEYFPC1 vector

binding result [7]: no binding
B3: GST-R9DEP (GST fusion of the putative DEP domain of RGS9, amino acids 20-117 of bovine RGS9) (other, UniProt O46469 20-117, looked up)
chain: IEALVKDMQDPDTGVRVQNQKVKVVSIPHAMTGSDVLQWISQRLWISGLEAQNLGNFIVKYGYIYPLQDPRNLTLKPDSSLYRFQTPYFWPTQQWPAE
notes: range 20-117; not shown: glutathione S-transferase (GST) tag of the pGEX-KG vector
